By Kd is commonly meant the equilibrium constant for the complex coming apart. A higher Kd goes with weaker binding.

1 molecule from article PMC6391183 can be followed below.

The target in the data set is Ago2 PAZ domain (human, UniProt Q9UKV8 227-371). The experiment in a line: ITC.
Chain of Ago2 PAZ domain (Q9UKV8 227-371): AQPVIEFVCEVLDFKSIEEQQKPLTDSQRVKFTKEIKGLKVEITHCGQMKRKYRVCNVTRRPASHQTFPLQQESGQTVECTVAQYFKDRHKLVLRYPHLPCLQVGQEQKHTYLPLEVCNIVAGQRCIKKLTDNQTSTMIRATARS

B1: native RNA (ssRNA)
RNA: AGAGUCACGCUUU
In the case of B1, the Kd stood at 600 nM.
